Assay results as given in the supplement of paper PMC12764529.
± gives the half width of the 95% confidence interval.

Legend:
[1] = folding stability dG unfold from trypsin proteolysis; higher = more stable
Procedure, shortened: (§1)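 Unfolding free energy was derived, per protease or combined, against a sequence-predicted unfolded-state K50 and a shared folded-state K50, starting from K50 inferred by Bayesian fitting of sequencing counts. Digestion with trypsin and chymotrypsin was carried out on designed mini-proteins under 80 residues without cysteine in a PA-tagged cDNA display construct. Only designs with AlphaFold2 dimer inter-PAE above 15 were kept.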

[2] = folding stability dG unfold from chymotrypsin proteolysis; higher = more stable
Procedure, shortened: as §1

[3] = folding stability dG unfold (combined trypsin and chymotrypsin); higher = more stable
Procedure, shortened: as §1

Sequence	folding stability dG unfold [1]	folding stability dG unfold [2]	folding stability dG unfold [3]
SAGGSPARPVLVTITLPDGEEVTRRMTLEEIERLVAKDPNVKVTIELPDGSVYTVDPNTGTITKAPSAGGSA [r2_222_JUSTAS]	2.84 ± 0.075 kcal/mol	2.49 ± 0.026 kcal/mol	2.63 ± 0.14 kcal/mol
SAGGSPATVLSSSTLSTTPLPDGTTLTTSETVTLLPNGEPVVTTTTTTTAPDGSVTTTTTTTPLDAASAGGS [r16_261_JUSTAS]	1.05 ± 0.043 kcal/mol	0.671 ± 0.043 kcal/mol	0.885 ± 0.047 kcal/mol
SAGGSPDIKFNEVKVELPTAETEAEFEKNTYKVEVPAPPELDITTTTTLTTSSGSTTTTTSTSPLELPSAGG [r13_191_JUSTAS]	0.0505 ± 0.06 kcal/mol	-1.11 ± 0.79 kcal/mol	-0.304 ± 0.11 kcal/mol
SAGGSPEVKIEIEVTERVTVFDENGKPVEEVLVVKAKITFPDGTTATITAFFYEGKWFITSIELEPSAGGSA [r2_158_TrROS_Hall]	3.84 ± 0.25 kcal/mol	4.83 ± 0.24 kcal/mol	4.62 ± 0.27 kcal/mol
SAGGSPEVKVLLFYDPATGERVVVVVTYDPATGEKKVLVFVESRPELVELVKKLLEDLGYEVEVVPSAGGSA [r2_30_TrMRF]	3.39 ± 0.19 kcal/mol	3.82 ± 0.16 kcal/mol	3.63 ± 0.11 kcal/mol
SAGGSPGQPYYIMIKLEWENPEDGEEHTFDIMFPVKSAEDAKDYILKELLPPGHKLKIDDISIMPMSAGGSA [r2_320_TrROS]	1.48 ± 0.022 kcal/mol	1.19 ± 0.1 kcal/mol	1.4 ± 0.15 kcal/mol
SAGGSPGSSLIGKKKLTIKVDNKDVEVEVTTSLSFLPSNQVTTSTEVKITLPNGKKIPKSLVEKLLSAGGSA [r2_363_JUSTAS]	0.711 ± 0.044 kcal/mol	0.66 ± 0.17 kcal/mol	0.742 ± 0.12 kcal/mol
SAGGSPHVSTDAADPELAARLLREAFGTDEVPLVRRDPTTGALLAFLPATGRLVWTDRTTVRVEPSSAGGSA [r2_205_TrMRF]	0.325 ± 0.13 kcal/mol	-0.0869 ± 0.13 kcal/mol	0.13 ± 0.074 kcal/mol
SAGGSPIIRVKVTYYPPDGSVTVYLPADSVDELIDALNSVPDIPVTPTDGDTIIASTPDAIVEITVESSAGG [r13_143_TrMRF]	0.471 ± 0.031 kcal/mol	0.849 ± 0.032 kcal/mol	0.717 ± 0.097 kcal/mol
SAGGSPIQTAVTTNTLGNETITTTTLVPPEAVATSVTTVYEPDPNSDNYVVKSVLTTTTSTLPPSDAASAGG [r13_568_JUSTAS]	-0.417 ± 0.055 kcal/mol	0.0608 ± 0.067 kcal/mol	-0.0865 ± 0.062 kcal/mol
SAGGSPISLEVSTSTLPDGTLRVTTTATSPDSSRSYTVTLDFPPSQPEEIPARAAAEAAAIAADPAVASAGG [r13_968_JUSTAS]	-0.552 ± 0.19 kcal/mol	1.35 ± 0.058 kcal/mol	0.907 ± 0.086 kcal/mol
SAGGSPMRIRDVEIEEFDPDAGRIEIRFPSNGNTIKIPIPPGHKSLKIKIRMKNGEPFEQTITIPPSAGGSA [r2_132_TrROS]	0.578 ± 0.14 kcal/mol	1.08 ± 0.12 kcal/mol	1.01 ± 0.22 kcal/mol
SAGGSPPPLRITYKIRMGGQPFEWTIPIPADDLPPGQQIEIDIRIKKMDPENNRMRMEIDDVEVTPSAGGSA [r2_479_TrROS]	-0.209 ± 0.32 kcal/mol	0.979 ± 0.27 kcal/mol	0.76 ± 0.19 kcal/mol
SAGGSPTIKLEILLPKEMTPEEVEALARELEEAGYEIVSIKVETVKDEDGREWVRVTITLRPKEDLSAGGSA [r2_442_TrROS_Hall]	3.21 ± 0.076 kcal/mol	3.97 ± 0.045 kcal/mol	3.73 ± 0.092 kcal/mol
SAGGSPTREVVLPTKDPTADKAFYTVRITLTEPPSNSTAVTVTFLDLPPDVEPSPELVAAVEAALSSAGGSA [r2_7_JUSTAS]	0.46 ± 0.036 kcal/mol	0.436 ± 0.13 kcal/mol	0.495 ± 0.056 kcal/mol
SAGGSPVYKVEIRMTIVDKNGTVKSIVNLELTFKTEEEIEKFLESIPKETVVEIEIEKRTVEPPEKLSAGGS [r16_677_JUSTAS]	2.12 ± 0.055 kcal/mol	0.699 ± 0.068 kcal/mol	1.41 ± 0.11 kcal/mol
SAGGSQEELAKQLAEELAKKEGLKEVKVSITPSPGPVLNITFEFYDENGNKKGVKSKTIPLPPDLLSAGGSA [r2_153_JUSTAS]	1.06 ± 0.11 kcal/mol	0.0811 ± 0.15 kcal/mol	0.515 ± 0.53 kcal/mol
SAGGSSEIVELKSIEKKGNSVILTLESKTNDYKVVVVIEGNKIRAYVFDKNGNIIAEFEFDGHPYLSAGGSA [r2_437_TrMRF]	2.41 ± 0.11 kcal/mol	3.34 ± 0.046 kcal/mol	3.15 ± 0.15 kcal/mol

Sequence	folding stability dG unfold [1]	folding stability dG unfold [2]	folding stability dG unfold [3]
SAGGSSIKIEKIEKHENGVKIDISVPDLSNEEEINAVKKKLAEELGLKEEDVEVSLKSENIPLPPSIGSAGG [r13_430_JUSTAS]	0.474 ± 0.11 kcal/mol	2.32 ± 0.21 kcal/mol	1.75 ± 0.22 kcal/mol
SAGGSSIKIPNPNGYEIEIEVTPDRAKIKWRMPGKEQEQEFPPGEDVTIRFPDGMPLTIKIPPPGESAGGSA [r2_57_TrROS]	0.456 ± 0.089 kcal/mol	0.154 ± 0.26 kcal/mol	0.424 ± 0.13 kcal/mol
SAGGSSKTEIYYNPKKPYFLIKVTYKNGKTKEYPIKGKGMSLEELKKKAEEIVKELNSEEFKEVVFNPSAGG [r13_267_TrMRF]	2.02 ± 0.12 kcal/mol	2.5 ± 0.082 kcal/mol	2.53 ± 0.14 kcal/mol
SAGGSSMKTSETTDPANGTPVRVETSIDPATNKVTTTVTTPDGTTVGSGTITIPPESSVTTTTTTTTPASAG [r5_747_JUSTAS]	0.793 ± 0.079 kcal/mol	1.49 ± 0.091 kcal/mol	1.21 ± 0.11 kcal/mol
SAGGSSMRKLIIIGPEGVTLERPIGPERTVEDVKAEWEAIGNVKFEEYPETGEVVVYLPEEALKEKSAGGSA [r2_164_JUSTAS]	0.601 ± 0.054 kcal/mol	1.47 ± 0.029 kcal/mol	1.22 ± 0.08 kcal/mol
SAGGSSPPGVKVEVTVEVTYIPSKGGYKLTFYRPGGEKVDTKELEKDKLEEAKEELKAKGFDVVKIKKSAGG [r13_765_JUSTAS]	-0.402 ± 0.41 kcal/mol	0.882 ± 0.18 kcal/mol	0.347 ± 0.21 kcal/mol
SAGGSSSMVTRTPSTSTVTVKRGNGPVTVSLPTTVVTRPDGSRTLETTVDTKDPAGNPAATTVTPAPSAGGS [r16_581_JUSTAS]	0.0362 ± 0.1 kcal/mol	0.98 ± 0.048 kcal/mol	0.643 ± 0.093 kcal/mol
SAGGSSSSTSTRIDPTTGEWVTSTSSFPVPPAPPYIEVRLDVPPEEAEALREKLLAEHPDLPVRLEASAGGS [r8_437_JUSTAS]	0.336 ± 0.023 kcal/mol	0.74 ± 0.029 kcal/mol	0.636 ± 0.072 kcal/mol
SAGGSSSTPVSSSTFTTPDGVTVSVTTTLEPDASGNPYTVTTETFPDGTVTTTTYRNGETQTTTVASAGGSA [r2_182_JUSTAS]	1.28 ± 0.041 kcal/mol	1.33 ± 0.11 kcal/mol	1.34 ± 0.088 kcal/mol
SAGGSSSVGVDSSDPEKTKEAILKAYGTDAEPVFTTDPATGRLTITVPETGDVHTVTAGTRTETAASAGGSA [r2_205_JUSTAS]	1.27 ± 0.042 kcal/mol	0.224 ± 0.068 kcal/mol	0.801 ± 0.085 kcal/mol
SAGGSSVSSVTLLSSETYTEGEKTFKRTTYLVPLPDGTTAIVTTEETTPPENPPEVEVSSSTTPLPGSAGGS [r16_121_JUSTAS]	1.25 ± 0.044 kcal/mol	1.78 ± 0.093 kcal/mol	1.63 ± 0.086 kcal/mol
SAGGSTTVTIETYESEKFPNGSFKTSTKKIVITNTLSPDEELTLPNGKKIPASLSAEEIAEAILKSESAGGS [r16_440_JUSTAS]	-0.849 ± 0.23 kcal/mol	0.522 ± 0.11 kcal/mol	0.151 ± 0.098 kcal/mol
SAGGSTVKTITLEFTRDPSTGAITEAEAEIERLKNDPNWEVTDPTITPLPDGTVKVPAKVKIPSNANLSAGG [r13_428_JUSTAS]	0.116 ± 0.2 kcal/mol	0.12 ± 0.27 kcal/mol	0.075 ± 0.23 kcal/mol
SAGGSTVTVTVRRRVRVEVNGELREFEVEVTVTVRLPPPPPVIELPPEQVTRIEWDEETQELRVEVDSAGGS [r8_28_TrROS_Hall]	2.98 ± 0.21 kcal/mol	3.33 ± 0.063 kcal/mol	3.28 ± 0.21 kcal/mol
SAGGSVEFEETITDPLKSLEEAKALAEEIEAELKAKGYKVTVTVTVVPPGSVTATITVTTDPAKGKKASAGG [r13_697_JUSTAS]	0.822 ± 0.063 kcal/mol	1.34 ± 0.072 kcal/mol	0.82 ± 0.22 kcal/mol
SAGGSVEKKLLEYDPATGNRLVEVTAKAKPEVVEELIAKGYDPSTISPLGDGTVRALLTIPPDEKLDSAGGS [r16_755_JUSTAS]	-0.295 ± 0.25 kcal/mol	-0.332 ± 0.25 kcal/mol	-0.248 ± 0.21 kcal/mol
SAGGSVEVEPLPNGLLRVTTVFSESKTPILRKLTYKDENGKPLGTKLELLPEEVEVESVTELLPPELLSAGG [r13_848_JUSTAS]	-1.07 ± 0.29 kcal/mol	0.606 ± 0.11 kcal/mol	0.256 ± 0.079 kcal/mol
SAGGSVITEEEKEKIKKEYPNLDIKLKALKPGETITYPNGTKVYGSPNGFLVEITNPDGTKTVIKESAGGSA [r2_166_JUSTAS]	0.638 ± 0.026 kcal/mol	0.498 ± 0.16 kcal/mol	0.604 ± 0.11 kcal/mol
